Assay results: patent US20060121047A1, “Use of hmgb polypetides for increasing immune responses” (priority 2002, published 2006)

Legend:
[1] = tested on: Murine macrophage-like RAW 264.7 cells; assay: TNF release from RAW 264.7 cells (L929 cytotoxicity bioassay); type: cell-based; details: for TNF release, dose dependence: B box 0-10 μg/ml, 8 hours (FIG. 2A)
Procedure: (§1) Murine macrophage-like RAW 264.7 cells (American Type Culture Collection, Rockville, Md.) were cultured in RPMI 1640 medium (Life Technologies, Grand Island N.Y.) supplemented with 10% fetal bovine serum (Gemini, Catabasas, Calif.), penicillin and streptomycin (Life Technologies) and were used at 90% confluence in serum-free Opti-MEM I medium (Life Technologies, Grand Island, N.Y.). […] Polymyxin B was not used in experiments of synthetic peptide studies.
TNF release was measured by a standard murine fibroblast L929 (ATCC, American Type Culture Collection, Rockville, Md.) cytotoxicity bioassay (Bianchi et al., Journal of Experimental Medicine 183:927-936, 1996) with the minimum detectable concentration of 30 pg/ml. Recombinant mouse TNF was obtained from R&D system Inc., (Minneapolis, MN). Murine fibroblast L929 cells (ATCC) were cultured in DMEM (Life Technologies, Grand Island, N.Y.) supplemented with 10% fetal bovine serum (Gemini, Catabasas, Calif.), penicillin (50 units/ml) and streptomycin (50 μg/ml) (Life Technologies) in a humidified incubator with 5% CO2.
The effect of the mutants on TNF release from Murine macrophage-like RAW 264.7 cells (ATCC) was carried out as follows. RAW 264.7 cells were cultured in RPMI 1640 medium (Life Technologies, Grand Island N.Y.) supplemented with 10% fetal bovine serum (Gemini, Catabasas, Calif.), penicillin and streptomycin (Life Technologies). Polymyxin (Sigma, St. Louis, Mo.) was added at 100 units/ml to suppress the activity of any contaminating LPS. Cells were incubated with 1 μg/ml of full length (wild-type) HMGB1 and each HMGB1 mutant protein in Opti-MEM I medium for 8 hours, and conditioned supernatants (containing TNF which had been released from the cells) were collected and TNF released from the cells was measured by a standard murine fibroblast L929 (ATCC) cytotoxicity bioassay (Bianchi et al., supra) with the minimum detectable concentration of 30 pg/ml. Recombinant mouse TNF was obtained from R & D Systems Inc., (Minneapolis, Minn.) and used as control in these experiments. Data in FIG. 1 are all presented as mean+SEM unless otherwise indicated. (=6−10).
(§2) To further examine the effect of HMGB1 B box on cytokine production, varying amounts of HMGB1 B box were evaluated for the effects on TNF, IL-1B, and IL-6 production in murine macrophage-like RAW 264.7 cells. Conditioned media were harvested and measured for TNF, IL-1β and IL-6 levels. TNF levels were measured as described herein, and IL-1β and IL-6 levels were measured using the mouse IL-1β and IL-6 enzyme-linked immunosorbent assay (ELISA) kits (R&D System Inc., Minneapolis, 1) and N>5 for all experiments.
The kinetics of B box-induced TNF release was also examined. TNF release and TNF mRNA expression was measured in RAW 264.7 cells induced by B box polypeptide or GST tag polypeptide only used as a control (vector) (10 μg/ml) for 0 to 48 hours. Supernatants were analyzed for TNF protein levels by an L929 cytotoxicity assay (N=3-5) as described herein. For mRNA measurement, cells were plated in 100 mm plate and treated in Opti-MEM I medium containing B box polypeptide or the vector alone for 0, 4, 8, or 24 hours, as indicated in FIG. 2D. The vector only sample was assayed at the 4 hour time point. Cells were scraped off the plate and total RNA was isolated by RNAzol B method in accordance with the manufacturer's instructions (Tel-Test “B”, Inc., Friendswood, Tex.). TNF (287 bp) was measured by RNase protection assay (Ambion, Austin, Tex.). Equal loading and the integrity of RNA was verified by ethidium bromide staining of the RNA sample on agarose-formaldehyde gel. […] TNF mRNA expression was maximal at 4 hours and decreased at 8 and 24 hours. […] A similar study was carried out measuring TNF protein released from RAW 264.7 cells 0, 4, 8, 24, 32 or 48 hours after administration of B box or vector only (GST tag), using the L929 cytotoxicity assay described herein. […] Data are representative of three separate experiments. […]

RAW 264.7 cells = assay: IL-6 release from RAW 264.7 cells (ELISA); type: cell-based, murine; details: B box 0-10 μg/ml, 8 hours (FIG. 2C)
Procedure: as §1, §2

C3H/HeJ mice = assay: Lethality and histology in C3H/HeJ mice; type: in vivo
Excerpt: Male 6-8 week old Balb/c and C3H/HeJ mice were purchased from Harlen Sprague-Dawley (Indianapolis, Ind.) and were allowed to acclimate for 7 days before use in experiments. All animals were housed in the North Shore University Hospital Animal Facility under standard temperature, and a light and dark cycle.

B1: B box: Recombinant GST-system human HMGB1 mutant containing only the B box, 74 amino acids, SEQ ID NO: 20 (protein, listed as Homo sapiens)
chain: FKDPNAPKRLPSAFFLFCSEYRPKIKGEHPGLSIGDVAKKLGEMWNNTAADDKQPYEKKAAKLKEKYEKDIAAY
modifications: GST system
[1]; 1 μg/ml protein, 8 hours, RAW 264.7 cells (FIG. 1)
  TNF release: potent activator of monocyte TNF release
[1]; 10 μg/ml
  time of maximum TNF protein release: ≤ 8 h
[1]; 10 μg/ml, 0 to 48 hours
  TNF protein expression/release versus medium only: stimulated TNF protein expression
[1]
  TNF release, dose dependence: increased with increased amounts of B box
[1]; listed as HMGB1 B box
  TNF release, dose dependence: dose-dependently stimulated release
RAW 264.7 cells
  IL-6 release, dose dependence: increased with increased amounts of B box
RAW 264.7 cells; listed as HMGB1 B box
  IL-6 release, dose dependence: dose-dependently stimulated release
C3H/HeJ mice; 8 hours after administration
  histology of heart: evidence of ischemia with loss of cross striation
  histology of liver: mild acute inflammatory responses
  histology of lung and kidney: no abnormal morphologic changes
C3H/HeJ mice; C3H/HeJ mice (do not respond to endotoxin)
  lethality: lethal
